# Measured values as given in the nanobody polyreactivity screen of Harvey et al. (2022).
# Experiment: yeast display, Sf9 membrane polyspecificity reagent, FACS + sequencing; frameworks hold sequencing errors
# How it was run: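 A nanobody's polyreactivity label depends on the gate it was sorted from. Yeast display cells were stained with 10% biotinylated, detergent-solubilized Sf9 membrane reagent for 1 hour at 4 °C, enriched on streptavidin microbeads and sorted by FACS. The low and high (top ~1%) gates were set on anti-HA fluorescence for expression and streptavidin fluorescence for reagent binding.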
row,Sequence,polyreactivity (PSR sort gate)
1,QVQLVESGGGLVQAGGSLRLSCAASGGIFAYYAMGWYRQAPGKERELVAAITSRGGRTYYADSVKGRFTISRDNAKNTVYFQMNSLKPEDTEVYYCNAERFWPWDYDYWGQGTQVTVSS,high polyreactivity
2,QVQLVESGVGLVQAGGSLRLSCAASGLTFLYYAMAWLRQAPGKERELVAVISSGGRTYYADSVKGRFTISRDNAKNTVYLQMHSLKPEDTAVYYCAAYDPYYQSTFDYWGQGTQVTVSS,high polyreactivity
3,QVQLVESGGGLVQAGGSLLLTCAASSSTFRPKVMGWYRQAPGKERELVAAISNGGRTYYADSLKGRFTISRDNAKNTVYLQMNSLKPEDTAVYYCAARGKTTKYNYWGQGTQVTVSS,high polyreactivity
4,QVQLVESGGGLVQAGRSLRLSCAASGSTLQNNGMGWYRQAPGKERELVAAISIGGDTNYADSVKGRFTISRDNAKNTEMNSMKPEDTAGYYCNTDYFGSQVVVIFDFWGQGTQVTVSS,low polyreactivity
5,QVQLVESGGGLVQAGGSLRLSCAASGRIFHVNAMGWYRQAPGKERELVAAISTSGGRTYYADSVKGRFTISRDNAKNTVYLQMNSLKPEDTAVYYCAASLGGYGERYYYWGQGTQVTVSS,high polyreactivity
6,QVQLVESGGGLVQAGGSLRLSCAASGRILTSYARGWYRQAPGKVRELVAAISYVCGSTDYADSVKGRFTISRDNAKNTVYLQMNSLKPEDTAVYYCAAKVRYYLSLRGSTTRRDDYYWGQGTQVTVSS,low polyreactivity
7,QVQLVESGGGLVQAGGSLRLSCAASGFTFVRYAMGWYRQAPGKESEFVASISARGGNTFYADSVKGRFTISRDNAKNTVYLQMNSLKPEDTAVYYCAKPGPYGTGYGYWGQGTQVTVSS,high polyreactivity
8,QVQLVESGGGLVQAGGSLRLSCAASGITFPYYAMGWYRQAPGKERELVAAISAGGTRTYYADSVKGRFTISRDNAKNNVYLQMNSLKPEDTAVYYCAARVWPIVQNYYWGQGTQVTVSS,high polyreactivity
9,QVQLVESGGGLVQAGGSLRLSCAASGSTFLINAMGWYRQAPGKERELVAAISRDGSTNYADSVKGRFTISRDNAKNTVYLQMNSLKPEDTAVYYCAAVQGISVGRQPGYDYDYWGQGTQVTVSS,low polyreactivity
10,QVQLVESGGGLVQAGGSLRLSCAASGFTFSVNAMGWYRQAPGKERELVAAISSRGGSTYYADSVKGRFTISRDNAKNTVYLQMNSLKPEDTAVYYCAKYPFYRSRHLGYWGQGTQVTVSS,high polyreactivity
11,QVQLVESGGGLVQAGGSLRLSWAASGSTFDGYAMGWYRQAPGKERELVAAITRSGGSTYYADSVKGRFTISRDNAKITVYRQINSLKPEDTEVYYSNKYGYKGCVGYDYWGKGTQVTVSS,high polyreactivity
12,QVQLVESGGGLVQAGGSLRLSCAASGRTFRFYALGWYRQAPGKEREFVAAISRSVGSTYYADSVKGRFTISRDNAKHTVYLQMNSLKPEDTAVYYCAARVFRGLGEYYWGQGTQVTVSS,high polyreactivity
13,QVQLVESGGGLVQAGGSLRLSCAASGLTFVPNAMGWSRQAPGKERELVAGITSAGSTYYADSVKGRFTISRDNAKNTVYLQMNSLKPEDSAVYYCAKQFYRGFRYGYWGQGTQVTVSS,high polyreactivity
14,QVQLVESGGGLVHAGGSLSLSCAASGRTFTSNAMGWYRQAPGKERELVATINGGVSTYYADSVKGRFTISRDNAKNTVYLQMNSLKPEDTAVYYCARDAYDADPSLWYYTYDYWGQGTQVTVSS,low polyreactivity
15,QVKLVESGGGLVQAGGRLRLSCAASGSIFTYYAMGWYRQAPGKERELVAAISYGGGSTYYADSVKGRFTISRDNAKYTVYLQMNSLKPEDTAVYDCNGVLGVNYGYWGQGTQVTVSS,high polyreactivity
16,QVQLVESGGGLVQAGGSLRLSCAASGSTFTNYAMGWYRQAPGKERELVAAINNDRTNYADSVKGRFTISRDNAKNTVYLQMNSLKPEDTAVYYCAAQWRVYGYKISRRNYWGQGTQVTVSS,high polyreactivity

row,Sequence,polyreactivity (PSR sort gate)
1,QVQLVESGGGLVQAGGSLRLSCAASGSTFYRYAMGWYRQAPGKERELVAAISTRSGSTYYADSVKGRFTISRDNAKNTVYLQMNSLKPEDTAVYYCAADGHKKTARKYYYWGQGTEVTVSS,low polyreactivity
2,QVQLVESGGGLVQAGGSLRLSCAASGSNIKYYAMGWYRQAPGKERELVAAISWRGGRTYADSVKGRFTISRDNAKNTVYLQMNSLKPEDTAVYYCATAQTSITGRVYYWGQGTQVTVSS,high polyreactivity
3,QVQLVESGGGLVQAGGSLRLSCAASGSIHSLYTMGWYRQAPGKERELVARISRSGGSTYYADSVKGRFTISRDYAKNTVYLQMNSLKPEDTAVYYCADERKNKYDYWGQGTQVTVSS,high polyreactivity
4,QVQLVESGGGLVQAGGSLRLSCAASGSIFKYYAKGWYRQAPGKERELVAAITIGGNTNYADSVKGRFTISRDNAKNTVYLQMNSLKPEDTAVYYCATGGYYSAIVYGGYDYWGQGTQVTVSS,low polyreactivity
5,QVQLVESGGGLVQAGGSLRLSCAASGRTFDRYAMGWYRQAPGKERELVAAITWSGGRTYYADSVKGRFTISRDNAKNTVYLQINSLKPEDTAVYYCAAAPRSYFTSEYWGQGTQVTVSS,low polyreactivity
6,QVQLVESGGGLVQAGGSLRLSCAASGYTFLGYAMGWYRQAPGKERELVAAIRRSGGRTYYADSVKGRFTISRDNAKNTVYLQMNSLKPEDTAVYYCAKGYVGEYDYWGQGTQVTVSS,high polyreactivity
7,QVQLVESGGGLVQAGGSLRLSCAASGRIFIKNAMGWYRQAPGKERELVAAISSGSSTYYADSVKGRFTISRDNAKNTVYLQMNSLKPEDTAVYLYGSWGQGTQVTVSS,low polyreactivity
8,QVQLVESGGGLVQAGGSLRLSCAASGRIFTRYAMGWYRQAPGKERELVAAITYSGGSTYYADSVKGRFTISRDNAKNTVYLQMNSLKPEDTAVYYCAAPYIGFVRHRKMGYWGQGTQVTVSS,low polyreactivity
9,QVQLVESGGGLVQAGGSLRLSCAASGRTFPYYAMGWYRQAPGKERELVATITRGGSTYYADSVKGRFTISRDNAKNTVYLQMNSLKPEDTAVYYCNADYWGHRFYFPGRRDYWGQGTQVTVSS,low polyreactivity
10,QVQLVESGGGLVQAGGSLRLSCAASGLTFPYYAMGWYRQAPGKERELVAAISGGGRTYYADSVMGRFTISRDNAKNTVYLQMNSLKPEDTAVYYCAPFHVGRYTGTVTDGYDYWGQGTQVTVSS,high polyreactivity
11,QVQLVESGGGLVQAGGSLRLSCGASGSTFPTYAMGWYRQAPGKERELVAVITSSGGRTYYADSVKGRFTISRDNAKNTVYLQMNSLKPEDTAVYYCAKGSGTIYNLYDYWGQGTQVTVSS,high polyreactivity
12,QVQLVESGGGLVQAGGSLRLSCAASGRIFSYYAMGWYRQAPGKERELVATINWRADTYYADSVKGRFTISRDNAKKTVYLQMNSLKPEDSAVYYCAKRPRPTDKYDYWGQGTQVTVSS,high polyreactivity
13,QVQLVESGGGLVQAGRSLRLSCAASGFTFGYYAMGWYRQAPGKERELVASISITAGSTYYADSVKGRFTISRDNAKNTVYLQMNSLTPEDTAVYYCAAKRRTRQSYYTEYYWGQGTQVTVSS,high polyreactivity
14,QVQLVESGGGLVQAGGSLRLSCAASGRTFYQYTMGWYRQAPGKERELVATISDSTNYADSVKGRFTISRDNAKNTVYLQMNSLKPEDTAVYYCNARVRGLGKYESWGQGTQVTVSS,low polyreactivity
15,QVQLVESGGGLVQAGGSLRLSCAASGRIFGDNGMGWYRQAPGKERELVTYADSVKGRFTISRDNAKNTVYLQLNSLQPEDTAVYYCYSPFGGKYDYWGQGTQVTVSS,low polyreactivity
16,QLQLVESAAGLFQAGVSHRLSCDASGSTLSQNSMGGYRQAPGKEREFVADISGSGDSTYYADSVKGRFTISRDNAKNTVYLQMNSLKAEDTAVYYCATPSPHVGLKWEYDYWGQGTQVTVSS,low polyreactivity
